These results are taken from publication doi:10.1101/2025.08.29.673013.

The target in assay [1] is Biotinylated SUMO [SUMO: Q12306]. The assay can be described thus: BLI. On the technique in general: BLI is a label-free optical method that tracks binding on a fibre tip over time.
The target of assay [2] is N-terminal region of PARP2 (NTR; aa 1–80) (human) (UniProt Q9UGN5). Put plainly: ITC.
Assay [3] has as its target WGR-CAT construct of PARP2 (aa 81–570) (human) (UniProt Q9UGN5). Put plainly: ITC. (In general: In ITC the heat of successive injections is recorded.)
Assay [4] has as its target Full-length human PARP2 isoform 2 (amino acids 1–570) (human) (UniProt Q9UGN5). Put plainly: ITC.
The target in assay [5] is NTR-WGR construct of PARP2 (aa 1–205) (human) (UniProt Q9UGN5). The assay can be described thus: ITC.
Assay [6] addresses Full-length human PARP2 isoform 2 (amino acids 1–570) (human) (UniProt Q9UGN5). The assay can be described thus: BLI.

As a reminder, the Kd is the constant that tells how readily two partners part at equilibrium. Read a high Kd as a looser complex. A word on the koff: it is a measure of how fast the partners let go of each other. Read a high koff as a short-lived complex. Broadly, the kon is a measure of how fast the partners come together. A lower kon goes with slow association. “Full-length human PARP2 isoform 2 (amino acids 1–570) (from UniProt Q9UGN5-2 1-570) (enzyme)”: in assay [1], the Kd came to 66.8 µM, the koff was 0.301 s⁻¹ and the kon worked out at 4500 M⁻¹ s⁻¹.

What is called IC50 is the concentration that inhibits the measured activity by half. Low readings indicate greater potency in that assay, high ones weaker potency in that assay. Consider “Small ubiquitin like modifier (SUMO) (from UniProt Q12306 1-101) (natural protein)”, for which the dissociation constant (Kd) in assay [2] was found to be 201 µM; in assay [3], 1000 µM; in assay [4] it was 45.6 µM; in assay [5], 125 µM. The substance also registered an IC50 in assay [6] of 0.82 µM.
